Data on one substance can be found in doi:10.1101/2024.05.14.591795.

The assay addresses BCG3185c (Mycobacterium tuberculosis (title); called a Bacillus Calmette-Guérin (BCG) protein). The experiment in a line: SEC.

Usually stoichiometry N stands for a count of units in the complex or per binding partner.

On to BCG3185c (enzyme), for which the stoichiometry N came out at 3.
